Test results: patent US20180208678A1 (UNIVERSITY OF CHICAGO, published 2018)
Each block holds one binder with its values, some of them ahead of it.

Assays:
[1] = molecular target: BgaD-D, smallest isozyme of the β-galactosidase from B. circulans ATCC 31382 (Biolacta) (Bacillus circulans ATCC 31382); assay: cell-based or functional assay
[2] = molecular target: BgaD-D, smallest isozyme of the β-galactosidase from B. circulans ATCC 31382 (Biolacta) (Bacillus circulans ATCC 31382); assay: Kd table; yeast-surface display (paragraph 202 repeats it as 12±3 nM)
[3] = molecular target: BgaD-D active site mutant E447K (Bacillus circulans ATCC 31382); assay: bead assay, purified proteins, target given as BgaD-D/EK, titrated 0-1000 nM shown, 1:1 fit [panel a]
[4] = molecular target: BgaD-D active site mutant E447Q (Bacillus circulans ATCC 31382); assay: bead assay, purified proteins, target given as BgaD-D/EQ, titrated 0-1000 nM shown, 1:1 fit [panel a]
[5] = molecular target: BgaD-D active site mutant E447R (Bacillus circulans ATCC 31382); assay: bead assay, purified proteins, target given as BgaD-D/ER, titrated 0-1000 nM shown, 1:1 fit [panel a]
[6] = molecular target: BgaD-D, smallest isozyme of the β-galactosidase from B. circulans ATCC 31382 (Biolacta) (Bacillus circulans ATCC 31382); assay: bead assay, purified proteins, target given as BgaD-D/WT, titrated 0-1000 nM shown, 1:1 fit [panel a]
[7] = molecular target: BgaD-D, smallest isozyme of the β-galactosidase from B. circulans ATCC 31382 (Biolacta) (Bacillus circulans ATCC 31382); assay: KD (nM) to BgaD-D; assay not given; the values equal those of the bead assay with purified proteins in FIG. 3B [panel c]
[8] = molecular target: BgaD-D, smallest isozyme of the β-galactosidase from B. circulans ATCC 31382 (Biolacta) (Bacillus circulans ATCC 31382); assay: bead assay, purified proteins: biotinylated monobody on streptavidin-coated beads, BgaD-D titrated (0-1000 nM shown), flow cytometry, 1:1 fit [panel b]
[9] = molecular target: BgaD-D, smallest isozyme of the β-galactosidase from B. circulans ATCC 31382 (Biolacta) (Bacillus circulans ATCC 31382); assay: Kd table; method not given
[10] = molecular target: BgaD-D, smallest isozyme of the β-galactosidase from B. circulans ATCC 31382 (Biolacta) (Bacillus circulans ATCC 31382); assay: Kd table; yeast-surface display (paragraph 202 repeats it as 600±170 nM)
[11] = molecular target: T1, Candida rugosa lipase 1 (CRL1) (Candida rugosa, UniProt P20261 16-549, biotinylated with NHS-LC-biotin, about 2 biotin per CRL1 molecule (binding assays)); assay: yeast-surface display of the monobody, CRL1 titrated, flow cytometry, 1:1 fit [panel a]
T1 construct: Bought purified protein
Protocol: Affinity of monobodies to CRL1 was determined using yeast-surface display, as described previously. Yeast cells displaying a monobody were incubated with varying concentrations of CRL1, washed with the buffer and stained with appropriate fluorescently labeled secondary detection reagents, prior to analysis on a flow cytometer (Guava EasyCyte 6/L, Millipore). KD values were determined from plots of the mean fluorescent intensity against CRL1 concentration by fitting the 1:1 binding model using SigmaPlot software (Systat Software).

[12] = molecular target: BgaD-D, smallest isozyme of the β-galactosidase from B. circulans ATCC 31382 (Biolacta) (Bacillus circulans ATCC 31382); assay: bead assay with purified proteins, biotinylated monobody on streptavidin beads (FIG. 3B)
[13] = molecular target: T1, Candida rugosa lipase 1 (CRL1); assay: cell-based or functional assay

production of DP4 by BgaD-D (fold reduction) [1]: 4.5 fold | production of DP5+ by BgaD-D (fold reduction) [1]: 30 fold | Kd [2]: 12 nM | Kd [3]: 156 nM | Kd [4]: 46 nM | Kd [5]: 227 nM | Kd [6]: 25 nM | Kd [7]: 25 nM | Kd [8]: 25 nM
B1: Mb(BgaD_L23) (designed binder)
chain: VSSVPTKLEVVAATPTSLLISWDAFDGYWYDYVSFYRITYGESGGNSPVQEFTVPSSSSTATISGLKPGVDYTITVYAYSHSQQQYLSPNSINYRT

Kd [10]: 598 nM | Kd [3]: 173 nM | Kd [4]: 72 nM | Kd [5]: 224 nM | Kd [6]: 37 nM | Kd [8]: 37 nM
B4: Mb(BgaD_L19) (designed binder)
chain: VSSVPTKLEVVAATPTSLLISWDAFDGYWYDYVSYYRITYGETGGNSPVQEFTVPSSSSTATISGLKPGVDYTITVYAYSHSQQQYLSPISINYRT

Kd [9]: 163 nM
B8: Mb(BgaD_L01) (designed binder)
chain: VSSVPTKLEVVAATPTSLLISWDAMDHTPYVYYYRITYGETGGNSPVQEFTVPGYYSTATISGLKPGVDYTITVYAGDLSWNFDFYSPISINYRT

Kd [9]: 147 nM
B9: Mb(BgaD_L18) (designed binder)
chain: VSSVPTKLEVVAATPTSLLISWDAESWYWPYYVSYYRITYGETGGNSPVQEFTVPSSSSTATISGLKPGVDYTITVYAFEHHEQRYYSPISINYRT

CRL1 activity toward C8 triacylglyceride (fold reduction relative to CRL1 alone) [13]: 11 fold | CRL1 activity toward C10 triacylglyceride (fold reduction relative to CRL1 alone) [13]: 102 fold | CRL1 activity toward C12 triacylglyceride (fold reduction relative to CRL1 alone) [13]: 4.5 fold | Kd [11]: 54 nM
B10: Mb(CRL_L18) (designed binder)
chain: VSSVPTKLEVVAATPTSLLISWDAMQYSEYDVTYYRITYGETGGNSPVQEFTVPGSSSTATISGLKPGVDYTITVYAVWQYMHYMHSYSPISINYRT
notes: 109 is Mb(S19)); also called Mb(L18)

Kd [9]: 76 nM
B13: Mb(BgaD_L03) (designed binder)
chain: VSSVPTKLEVVAATPTSLLISWDAGDYWVYYYRITYGETGGNSPVQEFTVPGYSSTATISGLKPGVDYTITVYAGDLSFNTYYYSPISINYRT

Kd [9]: 50 nM
B14: Mb(BgaD_S13) (designed binder)
chain: VSSVPTKLEVVAATPTSLLISWDAPAVTVVFYVITYGETGVHWPGYQKFTVPGSKSTATISGLKPGVDYTITVYAQFPWYMGSPISINYRT

The remaining lines, values behind:

B2: Mb(BgaD_L22) (designed binder)
chain: VSSVPTKLEVVAATPTSLLISWDAFDGYWYDYVSYYRITYGETGGNSPVQVFTVPSSSSTATISGLKPGVDYTITVYAYSHSQLQYLSPISINYRT
Kd [9]: 33 nM

B3: Mb(BgaD_L24) (designed binder)
chain: VSSVPTKLEVVAAAPTTLLISWDAFDGYWYDYVSYYRITYGETGGNSPVQEFTVPSSSSTAIISGLKPGVDYTITVYAYHHSQQQYLSPISINYRT
Kd [9]: 11 nM

B5: Mb(CRL_L24) (designed binder)
chain: VSSVPTKLEVVAATPTSLLISWDASSSSVSYYRITYGETGGNSPVQEFTVPGSSSTATISGLKPGVDYTITVYAFGHYYGSWVWSPISINYRT
notes: also called Mb(L24)
Kd [11]: 9.3 nM

B6: Mb(CRL_L23) (designed binder)
chain: VSSVPTKLEVVAATPTSLLISWDASSSSVSYYRITYGETGGNSPVQEFTVPGSSSTATISGLKPGVDYTITVYAFGHYYGSWAWSPISINYRT
notes: Mb(L23) and Mb(L24) differ by one residue and could be 116/117 in either order; also called Mb(L23)
Kd [11]: 11 nM

B7: Mb(BgaD_L14) (designed binder)
chain: VSSVPTKLEVVAATPTSLLISWDASSYYGVVSYYRITYGETGGNSPVQEFTVPGYSSTATISGLKPGVDYTITVYASYYYWYTSYTKSPISINYRT
Kd [9]: 37 nM | Kd [12]: 31 nM

B11: Mb(BgaD_L02) (designed binder)
chain: VSSVPTKLEVVAATPTSLLISWDANGWNYVKYYRITYGETGGNSPVQEFTVPGSSSTATISGLKPGVDYTITVYAYEYYSESSSSPISINYRT
Kd [9]: 5.7 nM | Kd [3]: 11 nM | Kd [4]: 12 nM | Kd [5]: 11 nM | Kd [6]: 9.9 nM | Kd [7]: 9.9 nM | Kd [8]: 9.9 nM

B12: Mb(BgaD_L05) (designed binder)
chain: VSSVPTKLEVVAATPTSLLISWDAYKSLGGVDYYRITYGETGGNSPVQEFTVPGSSSTATISGLKPGVDYTITVYAGYLWYPYGEWSPISINYRT
Kd [9]: 515 nM

B15: Mb(BgaD_S09) (designed binder)
chain: VSSVPTKLEVVAATPTSLLISWDAPAVTVVYYVITYGETGGNSPVQEFTVPGSKSTATISGLKPGVDYTITVYAYSDQVEYYEYFYGSPISINYRT
Kd [9]: 184 nM | Kd [3]: 178 nM | Kd [4]: 239 nM | Kd [5]: 157 nM | Kd [6]: 171 nM | Kd [7]: 171 nM | Kd [8]: 171 nM

B16: Mb(BgaD_S11) (designed binder)
chain: VSSVPTKLEVVAATPTSLLISWDAPAVTVVLYVITYGETGPGHSAWPQAFTVPGSKSTATISGLKPGVDYTITVYAYWDWDSHRYSPISINYRT
Kd [9]: 246 nM

B17: 1Mb39 S (designed binder)
chain: VSSVPTKLEVVAATPTSLLISWDAPAVTVDFYLITYGETGGPSWPQAFAVPGSKSTATISGLKPGVDYTITVYASSSSRISSSSSKPISINYRT
Kd [9]: 476 nM

B18: Mb(BgaD_L04) (designed binder)
chain: VSSVPTKLEVVAATPTSLLISWDAYEHWSGVYYYRITYGETGGNSPVQEFTVPGSSSTATISGLKPGVDYTITVYAYSYSYASMYSPISINYRT
Kd [9]: 137 nM

B19: Mb(BgaD_S10) (designed binder)
chain: VSSVPTKLEVVAATPTSLLISWDAPAVTVVFYLITYGETGASSWPGYQEFTVPGSKSTATISGLKPGVDYTITVYAQYPWDTGSPISINYRT
Kd [9]: 15 nM | Kd [3]: 12 nM | Kd [4]: 16 nM | Kd [5]: 16 nM | Kd [6]: 13 nM | Kd [7]: 13 nM | Kd [8]: 13 nM

B20: Mb(BgaD_S12) (designed binder)
chain: VSSVPTKLEVVAATPTSLLISWDAPAVTVVFYIITYGETGAAVWPGHQEFTVPGSKSTATISGLKPGVDYTITVYAVGPWDYYSPISINYRT
Kd [9]: 18 nM

B21: Mb(BgaD_S06) (designed binder)
chain: VSSVPTKLEVVAATPTSLLISWDAPAVTVVFYVITYGETGAAVWPGHQEFTVPGSKSTATISGLKPGVDYTITVYAQGGRWKSSPISINYRT
Kd [9]: 24 nM

B22: Mb(BgaD_S07) (designed binder)
chain: VSSVPTKLEVVAATPTSLLISWDAPAVTVDLYLITYGETGFSYGFPQAFTVPGSKSTATISGLKPGVDYTITVYASTVDGHSSPISINYRT
Kd [9]: 488 nM

B23: Mb(BgaD_S08) (designed binder)
chain: VSSVPTKLEVVAATPTSLLISWDAPAVTVDLYVITYGETGGSSWPQAFTVPGSKSTATISGLKPGVDYTITVYAHSWDHSYSPISINYRT
Kd [9]: 214 nM
